Non-standard residues stand in square brackets, D forms with d. No end group written: not given here. Phe(4-Ac) = CC(=O)c1ccc(C[C@H](N)C(=O)O)cc1
Assay: PK of 20 kDa PEGylated relaxin polypeptides after a single subcutaneous injection in SD rats (Example 40)
Assay type: in vivo, Sprague-Dawley (SD) rats
Details: for AUCinf / CL (mL/hr) / Cmax / MRT / Tmax / Vz / Terminal HL / Mean serum Conc.: 0.5 mg/kg SC; for AUCinf / CL (mL/hr) / Cmax / MRT / Tmax / Vz / Terminal HL: SD rats; for Terminal HL: non-compartmental; for Mean serum Conc.: male SD rats; for In vivo PK Term HL: 20K PEG
Source text: This example evaluates the pharmacokinetic properties of 20 kDa PEGylated relaxin polypeptides following a single subcutaneous injection in SD rats.
1st order elimination model and Gauss-Newton (Levenberg-Hartley) model fit equation. […] FIG. 8A-8/compares group mean serum concentration versus time for all PEG-Relaxin compounds dosed. All dose groups had measurable serum PEG-Relaxin levels.

## RLX-A-AA5-20KPEG-001: relaxin variant, B1 Ala, pAF at A chain position A5, 20K PEGylated (chain 1 QLYSXLANKCCHVGCTKRSLARFC; chain 2 ASWMEEVIKLCGRELVRAQIAICGMSTWS; not fully specified; non-natural residues)
  AUCinf: 16095.9 ng·h/mL
  CL (mL/hr): 31.1 mL/h/kg
  Cmax: 438.0 ng/mL
  MRT: 29.4 h
  Tmax: 25.0 h
  Vz: 547.4 mL/kg
  Terminal HL: 12.2 h
  In vivo PK Term HL: 12.2 h
1 hr
  Mean serum Conc.: 19.9 ng/mL
2 hr
  Mean serum Conc.: 100.1 ng/mL
4 hr
  Mean serum Conc.: 185.0 ng/mL
8 hr
  Mean serum Conc.: 264.7 ng/mL
12 hr
  Mean serum Conc.: 434.3 ng/mL
25 hr
  Mean serum Conc.: 438.0 ng/mL
34 hr
  Mean serum Conc.: 353.5 ng/mL
50 hr
  Mean serum Conc.: 86.9 ng/mL
58 hr
  Mean serum Conc.: 62.4 ng/mL
73 hr
  Mean serum Conc.: 32.8 ng/mL
80 hr
  Mean serum Conc.: 22.1 ng/mL
pre-dose (PD)
  Mean serum Conc.: BQL

## RLX-A-AR18-20KPEG-001: relaxin variant, B1 Ala, pAF at A chain position R18, 20K PEGylated (chain 1 QLYSALANKCCHVGCTKXSLARFC; chain 2 ASWMEEVIKLCGRELVRAQIAICGMSTWS; not fully specified; non-natural residues)
  AUCinf: 12985.5 ng·h/mL
  CL (mL/hr): 38.4 mL/h/kg
  Cmax: 345.9 ng/mL
  MRT: 27.7 h
  Tmax: 25.0 h
  Vz: 694.7 mL/kg
  Terminal HL: 12.5 h
  In vivo PK Term HL: 12.5 h
1 hr
  Mean serum Conc.: 33.9 ng/mL
2 hr
  Mean serum Conc.: 109.7 ng/mL
4 hr
  Mean serum Conc.: 172.7 ng/mL
8 hr
  Mean serum Conc.: 270.5 ng/mL
12 hr
  Mean serum Conc.: 332.5 ng/mL
25 hr
  Mean serum Conc.: 398.6 ng/mL
34 hr
  Mean serum Conc.: 264.3 ng/mL
50 hr
  Mean serum Conc.: 76.7 ng/mL
58 hr
  Mean serum Conc.: 61.8 ng/mL
73 hr
  Mean serum Conc.: 25.0 ng/mL
80 hr
  Mean serum Conc.: 14.9 ng/mL
pre-dose (PD)
  Mean serum Conc.: BQL

## RLX-A-AV13-20KPEG-001: relaxin variant, B1 Ala, pAF substituted for valine 13 in the A chain, 20K PEG attached (chain 1 QLYSALANKCCHXGCTKRSLARFC; chain 2 ASWMEEVIKLCGRELVRAQIAICGMSTWS; not fully specified; non-natural residues)
  AUCinf: 32230.5 ng·h/mL
  CL (mL/hr): 15.5 mL/h/kg
  Cmax: 742.5 ng/mL
  MRT: 32.7 h
  Tmax: 25.0 h
  Vz: 325.4 mL/kg
  Terminal HL: 14.6 h
1 hr
  Mean serum Conc.: 44.9 ng/mL
2 hr
  Mean serum Conc.: 138.9 ng/mL
4 hr
  Mean serum Conc.: 345.7 ng/mL
8 hr
  Mean serum Conc.: 533.6 ng/mL
12 hr
  Mean serum Conc.: 630.1 ng/mL
25 hr
  Mean serum Conc.: 742.5 ng/mL
34 hr
  Mean serum Conc.: 540.7 ng/mL
50 hr
  Mean serum Conc.: 320.9 ng/mL
58 hr
  Mean serum Conc.: 209.4 ng/mL
73 hr
  Mean serum Conc.: 75.0 ng/mL
80 hr
  Mean serum Conc.: 58.7 ng/mL
pre-dose (PD)
  Mean serum Conc.: BQL

## RLX-A-BV7-20KPEG-001: relaxin variant, B1 Ala, pAF at B chain position V7, 20K PEGylated (chain 1 QLYSALANKCCHVGCTKRSLARFC; chain 2 ASWMEE[Phe(4-Ac)](PEG 20 kDa)IKLCGRELVRAQIAICGMSTWS; not fully specified (bridges); ends and bridges not checked)
  AUCinf: 17260.9 ng·h/mL
  CL (mL/hr): 28.9 mL/h/kg
  Cmax: 471.6 ng/mL
  MRT: 27.9 h
  Tmax: 12.0 h
  Vz: 546.9 mL/kg
  Terminal HL: 13.1 h
  In vivo PK Term HL: 13.1 h
1 hr
  Mean serum Conc.: 25.7 ng/mL
2 hr
  Mean serum Conc.: 98.9 ng/mL
4 hr
  Mean serum Conc.: 248.5 ng/mL
8 hr
  Mean serum Conc.: 343.5 ng/mL
12 hr
  Mean serum Conc.: 457.3 ng/mL
25 hr
  Mean serum Conc.: 518.5 ng/mL
34 hr
  Mean serum Conc.: 270.4 ng/mL
50 hr
  Mean serum Conc.: 104.0 ng/mL
58 hr
  Mean serum Conc.: 63.5 ng/mL
73 hr
  Mean serum Conc.: 26.0 ng/mL
80 hr
  Mean serum Conc.: 22.6 ng/mL
pre-dose (PD)
  Mean serum Conc.: BQL

## RLX-A-BW28-20KPEG-001: relaxin variant, B1 Ala, pAF at B chain position W28, 20K PEGylated (chain 1 QLYSALANKCCHVGCTKRSLARFC; chain 2 ASWMEEVIKLCGRELVRAQIAICGMST[Phe(4-Ac)](PEG 20 kDa)S; not fully specified (bridges); ends and bridges not checked)
  AUCinf: 22191.2 ng·h/mL
  CL (mL/hr): 22.5 mL/h/kg
  Cmax: 511.0 ng/mL
  MRT: 31.1 h
  Tmax: 25.0 h
  Vz: 452.6 mL/kg
  Terminal HL: 13.9 h
  In vivo PK Term HL: 13.9 h
1 hr
  Mean serum Conc.: 36.4 ng/mL
4 hr
  Mean serum Conc.: 228.5 ng/mL
8 hr
  Mean serum Conc.: 380.9 ng/mL
12 hr
  Mean serum Conc.: 486.6 ng/mL
25 hr
  Mean serum Conc.: 511.0 ng/mL
34 hr
  Mean serum Conc.: 404.8 ng/mL
50 hr
  Mean serum Conc.: 184.2 ng/mL
58 hr
  Mean serum Conc.: 122.3 ng/mL
73 hr
  Mean serum Conc.: 48.8 ng/mL
80 hr
  Mean serum Conc.: 37.1 ng/mL
pre-dose (PD)
  Mean serum Conc.: BQL

Reference: patent US11786578B2, “Modified relaxin polypeptides and their uses” (AMBRX, INC., priority 2010, dated 2023)
